Assay results: a protein production outcome set (Wang et al. 2014)

Experiment: label from the status in PepcDB records

Sequence	protein production
MVRRCETQRGRWDNKVNILKDTDKFGFDLGFQLQESKKRFGPDLGFCIKRFAPPILQMSLEENENGPKPTWQIRSNRETSKAIRSAPPLTFSSFTGVSLGRKLPNNKNPESSKTRQEGFDTVEEGLKGDRGRTSVDRSEYDGG	failed
MKVGIDAGGTLIKIVQESQQGRSYETKLTTNISEVIAWLNANTFESISLTGGNAGVIAENLNVDATIFVEFDASSKGLGMLLKEQGHHIDEYIFANVGTGTSLHYFDGKQQRRVGGVGTGGGMIQGLGYLLSQITDYEALTNLAQSGDRDTIDLKVKHIYKDTEPPIPGELTAANFGNVLHNLDVDFSPANKLASVVGVVGEVITTMAITVARENKTENVVYIGSSFNNNPLLREVIEDYTVLRGFKPYYIENGAFSGALGAIYLN	failed
MSDHNNKGRQQDVKALPRRVDERLNLSRHKEVKPSRLHDEVHRIVYELEARQLELEMQQENMLQSKEEMECLLKRYVEHYDIAPHSYMTISREGSILEANLTAAKNLGQDRALLKGDLLEKFIADKDRPVFKAFLERVFRGQTNAFCEVKLFNNQASQARGSAEADRYETVIEERMVRFDAALSNDGEECYIYITVSDRGSQNELEGQNTFFTDRLKDDIADMPDSDKVDFNYQLFDSVIHTRIRLAALSYLYTVKQACFVEIRDKIKASDGSLSVHMRMLESAGYISCDKEFLARKPQTVYRITPLGHDAFLKYSDIVFSLIAKKQEAS	failed
MEAAVNAAEAYSHIRAVMGMVVGLSLARLLTGLAGFVQHPKKERIYLLHIGWVAFLFLMLVHFWWWEHRLSATGHVLDFGAFLFLILFCSLFYFLCVLLFPTDMKEYKGYEDYFFSRKSWFFAFLAALFVTDVGDTLLKGHDYLASLGPEYLIRTAIYVVLFTAAAFIDNRRFHRFLVIFALVYQIAWIFRTYDLLA	failed
MFRVFILFGFGFYLMQLHISGDISKYINMKYAYLSFSAMIAAFLLAIIQLIMVFRDEDIGAKTEHMGHTHDGENTILKKIMVYGLLSYALIAGFLFPVATLDSTIVSAKGFHFPKNNAAGDDPYAQNQFLRPDTSGYFGETDYEKMMAKEKAEIIDQNPIKVNDSNYLMTMEILYNYPGEFTGKQIEFTGFVYNDEVTKDNNLFLFRFGIIHCVADSGVFGMLVQMPEKTNLKNDTWLTVKGTITQEYYSPFKMNIPSVQVESYKEVAKPKSVYVYRKY	failed
SGNTTSERVSGERHGAKAARAEGGGHGPGKEHKIMVGSTDDPSVFSLPDSKLPGDKEFVPWQQDLDDSVKPTQQARPTVIRWSEGGKEVFISGSFNNWSTKIPLIKSHNDFVAILDLPEGEHQYKFFVDGQWVHDPSEPVVTSQLGTINNLIHVKKSDFEVFDALKLDSMESSETSCRV	failed
MLNQFPKLRLTPFTTGIVAIFLFSLVIRFWNLGQFNQLVFDEVYYAKFASDYWLGNDFFPSHPPLSHYLIALAMGLGQVFPVNPEQVNDLTGAVRSTWSYRWLNALTGATIPLLLGAIAYLLTQRRLVTLLTMGLVALDGLFLVESRYALNNIYLVFFGLLGQALVLWHLRQEKLWQLILGGISLACAGSVKWNGFAFLLGVYLLWAIAWVKPFFNQGWTKGERQANSLQLLDRDGENNQGFLSRWLIISPLKFAIWLVLVPVITYSVIWIPHLLMNGEYASLEGFWRIQRETWQYHRRVGNSPDIHPYCSPWYSWLLMARPIAYFYQKSGQFGLINDVHAMANPILLWFSTGAMALLTGTVIWQKIRQFSSQTINAPLRGITLYIEVNYAVNLLPWLGISRCTFFYHYLPAYAFSILALALILETLLDSPRHSHNVIAWAVLTLVAIAFWYWLPVFLGLPLTPRGFALRMLFPSWI	failed
MTKYGVVGTGYFGAELARFMSKVEGAKITAIYDPVNAAPIAKELNCVATATMEALCTHPDVDCVIIASPNYLRKAPVIAAAKAGKHVFCEKPIALNYQDCKDMVDACKEAGVTFMAGHVMNFFHGVRHAKALIKAGEIGEVTQVHTKRNGFEDVQDEISWKKIRAKSGGHLYHHIHELDCTLFIMDETPSLVSMAAGNVAHKGEKFGDEDDVVLITLEFESGRFATLQWGSSFHYPEHYVLIEGTTGAILIDMQNTAGYLIKAGKKTHFLVHESQAEDDDRRNGNISSEMDGAIAYGKPGKRTPMWLSSIMKLEMQYLHDVINGLEPGEEFAKLLTGEAATNAIATADAATLSSNEGRKVKLTEILG	failed
MKLICYILLILLIPAIPVGAQTLSGGQVQVSNQSILISDNGQVMIGMDITLPAAMELSSNCVATLTPVLKTQDNSYNRILPAIWVYGRIRSIVQQRERSIPSDAYTILRRKNGTEQTVNYSARIPYEKWMNGAELELQAAIRGCADCQKEENSAFITRANLERYVVKPVVAFVSPAVEAVKNRAEEGRAYLDFPVNQMNIYPDYRRNPSELAAIKHTVDVVKNDVNTTITEIAIVGYASPEGRYAANARLAQGRAEALKSYVMNEYGFKADLFKVNSVPEDWAGLRAYVAKNDLPLKEEILSIIDKNESDFDVKEERIKALDGGKVYAALLQDCYPALRHSDYTVRYVVRGFDVEEAKQIIKLRPQQLSLQEMFLVAQTYEKGSDEFNEVFDVAVRMFPDDPTANINAAAIELQRGDLQQAVRYLDKADAQASATLNNRGVLKLLQGDLDSAENYFKQAQAKDSVEAGANLEEVTNKRKDEAIFVK	failed
MKVVVQIKDFDKVPQALRSVINLYNDIKDAEIEVVLHQSAIKALLKDSDTRSIIEDLIKKNILIVGCENSIRSQNLSHDQLIPGIKIVTSGVGEIVRKQSEGWIYLAL	not failed
MGQVEVIDRRQSVFGDDIQLQKRSSSYEIISNGVFLMSTENGRSEREMVTLGAQHMKNAVHSVLIGGLGVGITADEAVHLNDHVQVHVVEIEPSVVEWQYRYLYPFSNQALEHERTAIIISDIQQWLRTNERTYDLICLDTDNGPDWMVHKQNASLYGKIGLELVRERVRVGGAVSFWSASASESFLHELETLFDRVYEHAVSISHTLPPDYVYVACRDLEHHHHHH	not failed
MNRVKDKRLWLSIVGITGLGLLSGLFSVNAREYYQALRLPSFAPPGWLFGPVWLVLYIFMGITFYFILVHPNKQQKKRMITLFILQFIANFFWTFFFFSLQNNLLSVIDISLLWLLLIIQQWDYLRYKLITRGWLMIPYILWVTFAAALNYSILFLN	not failed
MQRVEEVFARREPELAPMAEPAPQPQVRQEPLPEVDQAYIHNYVETSGQQDIRADFRDDAGAVAEVFDVHSRQPRAAEPVVYQQAAPQVAPQLAWEEPQAIEPSQPEWHAMPELPADVSSNISSDAHAYAPEPQAFDLADEVEIAVAEAAPAPVSVRPPAHGGRSSLEFSSLRLPLANFGARRDVSAVDPRRVEPRSELYPAASRIEPQVEPAPAVVQAEETAPSFAQPVAEVFTPAAEPLAPAIAERPAAKNLSPMDELIYGVAQYSIPERGEAQPVKTEPVAQAAKVEPPAVAAAPAKAAPVAAAVPASPIEEPDFTDFTGFNDDDFELALDDLDLDLDLSEIAEAEVAPAPQPVRPQPATPIAAVAPQPVRHEPAPQPRPAPVVAAAPIAAAPVVAAPVQPRPVAAQPAVPQTLESLPFDPSQIGETEEHPETIIEMDVPELPVGVFEPKPAARRHEEDLDIDTELATLFAPAVAGGLDRHKHAENRGAAQARPAPAPEEADEFERALEEDFRRSMQEAAASRGNAPRDAETYVDHQAAYRDEDERGGRRWIMPVAAAIGLVLIGGGVYALISGGSSGTGSNGAPVIISADNDPMKVVPENPGGRVVPNQDKAVYDRVAGGAAADPKQPALISSNEKPVDVVQRTLIPEQLPLEGENDADMEAAGTPVGETEDPRLLSPEEKAAHNEGAGATGVSPRKVRTMIVKPDGTLVAQEVDAPAAQPPKADKVAELAAPQTAKPGEGAPAVIAASRVPVAPEQAQPQASTPAAAKPSTQSAAPLPAARPSSQPANVVATVTNQGNVRPATTAPAQAAQQQTAAATPAATSTPSAGGYYIQIASLPSQAEAQKSYQNMSAKFGSVIGGRGVDIKAAEIAGKGTFYRVRIPAGDKNEAVALCEKFRSAGGSCLVAR	failed
GAEKEDLVQEGILGLLKAIKFYDETKSSFSSFAFLCIRREMISAIRKANTQKHMVLNEALKTNAILEDSAYFDDEGHNINNYKSSESNPEEAYLLKEEIEEFKKFSENNFSKFEKEVLTYLIRGYSYREIATILSKNLKSIDNTIQRIRKKSEEWIKEEENIKR	not failed
MNHDLLTNNPLLIVSAIFVFFILLEIACSAFGQPRGQRRDVLIEAVGSSLLLGVTFPLVMWASGALMQLSLPEAKGALAQIPWVLGLLLFLVFDDMTQYWWHRLTHRVPALYALHRAHHSAPYMSIRIVYRNNSFYYLLMPGIWFSGVLIYLGLAPVYYGYLILKMTVIFAAHSSVAWDDKLYRIGFLRPLMWLLERVFSTPSTHSAHHGLSAEDGVTHYKGNFGNLLFLWDVLFGTAKITRRRPVAYGIEHLAPVSWTQELFWPLVRSRKARASAVARVEGALPANPASQG	failed
MHNLVPAPKQTQSVLIKNATVHTVIQGVLTNTDVLIENGKISALGPQLSTNTTASTQVVDASGKHLYPGLIALDTSLGLEHHHHHH	failed
MHNHNNRLVITPGEPAGVGPDLAITLAQQDWPVELVVCADPALLLARASQLNLPLQLREYQADQPAIAQQAGSLTILPVKTAVNVVPGKLDVGNSHYVVETLAKACDGAISGEFAALVTGPVQKSIINDAGIPFIGHTEFFADRSHCQRVVMMLATEELRVALATTHLPLLAVPGAITQASLHEVITILDNDLKTKFGITQPQIYVCGLNPHAGEGGHMGHEEIDTIIPALNTLRQQGINLIGPLPADTLFQPKYLQHADAVLAMYHDQGLPVLKYQGFGRAVNITLGLPFIRTSVDHGTALELAATGTADVGSFITALNLAIKMINNSNE	not failed
MSTETAEKPGETTPESHVFEADVARLLHMMVHSVYSDKDVFLRELVSNAADACEKLRYEAITTPGLLTSDPDPRIQLRLDADNRQLILEDNGIGMSRAELIEALGTIARSGTRAFMERIEASKADAAKTGEDAQLIGQFGVGFYSCFMVADKVDVVTRRAGETQAWIWSSDGKGSYSISEIDAESAPARGTRITLHLMEDAKDYATRARVERIVKQQSGHVPVAITLVEKPGDEPTRITEGTALWTRPKSEISSEDYADFYRGIAGQYDEPALTVHFRAEGRHEYTALAFVPGTPPFDLFDPDRKGRIKLYVKRVFITDDAELLPRYLRFVRGLVDTADLPLNVSREMIQESPILSAIRKGVTNRILTSVEKLAQNEPETYKTLWENFGAVLKEGLYEDFERRSQLLGLTRFRTTTSGDDQRSLADYLKDLKPEQDSIYYLAGSNIEQLRASPQLEGFRARGIEVLLLSDQIDSFWVMNAPEFEGKTFKSVSQGAADLAKFAKADAGADSDQDSNDQAKADIAGFLALAKEQLKDQVADVRASDRLTESPVCLVAPESGYDRQLEKILAGAGQLASTSKPVLELNADHVLVKAMAGAQHTPALQNDAIHLLYDQARILDGEKPADARAFAERMGRLLEKALRA	failed
NRDSLFNDPNAPVLGNPEGDVTVVEFFDYNCPYCRRAMAEVQGLVDADPNVRLVYREWPILGEGSDFAARAALAARQQGKYEAFHWALMGMSGKANETGVLRIAREVGLDTEQLQRDMEAPEVTAHIAQSMALAQKLGFNGTPSFVVEDALVPGFVEQSQLQDAVDRARKAA	not failed
MPMSQSTFTILLGGELSLTERLRDAIEDSRFIAADGGMRHAAALGITPELWVGDFDSTPADLADAFPDVPKQPYPAAKAATDGEIAVAEAIARGARRLILAGALGGERSDHALQHLLSAVSLAEEGFDLLLTSGKEEAVPLVAGTIELDLPKGSLFSVPGFSELRGLAIENARYPLADFHLPFGSSRTISNVAEGKVRFSLRSGRAIVLARPYDLSGV	failed
MAYGKAHLEAQLKRALAEEIQALEDPRLFLLTVEAVRLSKDGSVLSVYVEAFREEEGALRALSRAERRLVAALARRVRMRRLPRLEFLPWRASPA	not failed
MQTIIYQIAPNDWVTDEVLMASTGLKPGTILRARKKAWFVGREYKHMTLDGKPKANGECLYHLPTINRWIRNMPDPDVDLLEHHHHHH	not failed
